Consider 17 sequences from the DeepSol protein solubility set.

A short description of this series: soluble on expression in E. coli; label from the status in PepcDB or PDB records.
Take “MSLDAAQAMSKIPVIGKIVKAITFIEIKEEKDQSSIDVKTPALSGLSNKELENSINEKYLKESQQLYKEFIQSTSKNKKGHLSIYSDYETVTDTPDLLSIRRNIETTQASSYTQSRYITIDKKNDILLTLKSLFKDERYIKVISQNIKEQMKQQMKEDPNKIYWLTDEDAEPFKTILPDQTFYITEDHKLVISFDEYEVAPGYMGVTEFTIPTGVISNLLVGERYIREGHHHHHH”: the “soluble on expression in E. coli” value is listed as “soluble”. Next, “MSLDANVRTVKWNGIPLHEASSAIVKEETNGDFYLTVRYPITDSGIYQLIKEDMLIKSPVPVLGAQLFRIKKPIENDDSMDITAYHVSDDIMKRSITPVSVVGQGCAMALSQMVQNAKTGLGDFSFTSDIMDSRTFNTTETETLYSVLMDGKHSIVGTWEGELVRDNFALSIKRSRGADRGVVITTHKNLKSYQRTKNSQGVVTRIHARSTFKPDGAEDEVTLRVSVDSPLINSYPYINEKEYENNNAETVEDLRKWAEAKFTNEGIDKVSDAIEIEAYELDGQVVNLGDTVNLKSRKHSADLYKKAIAYEFNALTEEYISITFDDKPGVGGSGVSSGLSNVADAILVASATAQDVAVQRAVKNANAAFDAEFGKTKTKINDDIEIAKAKVESFKSELSNRMDNQLLPLATEAKNLASQAQADLTRKEIELRAELNREGHHHHHH”: “not soluble”; “MSLDASDDSLIGRITEVRAGRFAARLLSDEEGFRNEVSLGDEVQHPGQVGTYVSIRNGTFRILALVREVSGGAAGSAAGSAMQLVPLGEFNDKGAFSRGVRRYPVPGAEVHAASPQEINAVFARTRNLRFNPGYLPNHPATGVYLDPSALCSRHFAILGQSGAGKSWTVASLLQRMLASAPRAHIILLDLHGEYCWRGADGVLHSTFPPMATRAMDARELEIPYWLMSFAELVDLLIERDDPAASIQTAFLRETVFELKRRSARELGLEGVSIDAPVYFSLQEVYERFKEANEHRTDFGKTKGPLFGQFDDFLLKLGSRLHDVRYDFLLNPARRTRSESLPDLLRDFVGLGEPRCQISVIDLSPVPFDVRPTVSAQIGRLAFEFNYWNLDRREFPILLVCEEAHTYIPRERATQYEGTRKSMERIAKEGRKYGVGLAVVSQRPHELSETVLSQCGSYICLRISNPDDQAYVRKLVPEGEADLVDVLTALGRGEALILGEATPLPVRCQIFRPDEGHHHHHH”: “not soluble”; “MSLDDGTGLFTIGQLARRTGLSVRTIRYWSDEGALPPVTRSSGGYRLYDAGSVARLELIRTLRELGLGLDDVREVLAGETTVAEVAATHVTALDAQIRALKVTRAVLSTVARRGSTAEEMTLMNKLARLSAAERRRILEEFADEMFRGLDTADPVIRERMRNTAVDLPDEPTPEQVDAWVELVELLQDPEFRAQMRAAAEFNAADRGHDSPAGASLWFVRRLVQLAADARQRGIAPEAPEAEEVLRELLGEADGAADRAAVLERLEATSNDRVARYRELLAVVKGGGPLPAHREEFGWVVAALRAREGHHHHHH”: “soluble”. Next, “MSLDFSEPLLGFEPRDTEIGRRLEVWKAMQALTGPKNLLSLSPDPEMNSSSLLSTLSPAAWGRAEESVVRTKRMVGPVEVKEEENFFCGRPEKSHAKLVFVSTSGGSLWNLQAIHSMCRIEQEQIRSHISFGALCQRSAANECCPSWSLGNYLAVLSNRSSCQDTTQADTDRTLALLRFCATFYHRGVLVPACVGSSQDKPPFCAQVPAKCTGSNVVYEFLHYLLDRDFLSPQTADYQVPSLKFALLFLPIIKTSSLLDIYLDGLGDPIKVSDNYTSISGMDLGLKPRLLKYYLAEDTEGHHHHHH”: “not soluble”; “MSLDGKPLADKMRPTTLNNYMGQNKVLGENTMLRNLLQANDIPSIILWGPPGCGKTTLAHIIAKNAQKSSSRFVTLSATSASTSDVREFIKQAQNEQRLFKRKTILFVDEIHRFNKMQQDTFLPHVECGTITLIGATTENPSFQVNTALLSRCRVIVLEKLSVEAMETILMRAVDSLGLKVLKDGEQLVGSSSDVSETSVYVEEKALTTLAHLCDGDARTGLNGLQLSVQASLAAEKDPIKQGIVIKEEHIKEGLQRSHILYDRAGEEHYNCISALHKSMRGSDKNASLYWLGRMLEGGEDPLYVARRLVRFASEDIGLADPQALTQAVSTYQACHFIGMPECDVILAQCVMYMACAPKSVTVYSAYNKVKNCLKNHKGPLPPVPLHLRNAPTKLMKGLGYGKGYKYNPNFSEPVEQDYMPEEMKGVTEGHHHHHH”: “not soluble”. Take “MSLDGQGEAVVEGHEAALLLSESRASVDPELRSAIATLPESMRRVALYHFGWQHADGTPAAGNAGKAIRPALVLTAAAALGGPGARAAAVRAAAAVELVHNFTLLHDDVMDRDATRRHRPTAWTVFGDADAILAGDALQALALRLFAADPHPASAAAATRLADCVMELCEGQHADTAMERRPPDEVTLDETLVMAEAKTGALLGCACAVGALYAGAATEDVEALDAFGREAGMAFQLIDDVIGIWGDPRHTGKPAGADLAARKKSLPVVAALTSGTPAAAELAELYTGPYDENKEDLERTALAVERAGGRDWAQAQAADRMARAMQELARAVPEPEAAGGLLALAEFVTRRSTEGHHHHHH”: the “soluble on expression in E. coli” value was “soluble”.

For the sequence “MSLDIKQLKFLIALDQTRHFGQAAALCHITQPTLSMRLRNLEDELDLVLVKRGQRFEGFTEAGERILAWARTLLAAHDGLQAEAASCRGQVVGSLRLGTVPLASFNPMHLLLPLREKYPELHFQLSSLSSEQVIDGLSRNQLDLGICYLDQVNTSFFEVIELGTTTMGLLHDTRHFQFTSDRLRWDELGDIPLGLLSKGMHYRQSLDLSFRSRGLEPNAVLESDSSFQLIQAINTGICCAIMPLDCGLEDLSEHLRIVPVADAAIHSPVGLLLRRSEPRSAIAEQCFAEARGLFQASEGHHHHHH”, the “soluble on expression in E. coli” value was “soluble”. Next, “MSLDIQSLDIQCEELSDARWAELLPLLQQCQVVRLDDCGLTEARCKDISSALRVNPALAELNLRSNELGDVGVHCVLQGLQTPSCKIQKLSLQNCCLTGAGCGVLSSTLRTLPTLQELHLSDNLLGDAGLQLLCEGLLDPQCRLEKLQLEYCSLSAASCEPLASVLRAKPDFKELTVSNNDINEAGVRVLCQGLKDSPCQLEALKLESCGVTSDNCRDLCGIVASKASLRELALGSNKLGDVGMAELCPGLLHPSSRLRTLWIWECGITAKGCGDLCRVLRAKESLKELSLAGNELGDEGARLLCETLLEPGCQLESLWVKSCSFTAACCSHFSSVLAQNRFLLELQISNNRLEDAGVRELCQGLGQPGSVLRVLWLADCDVSDSSCSSLAATLLANHSLRELDLSNNCLGDAGILQLVESVRQPGCLLEQLVLYDIYWSEEMEDRLQALEKDKPSLRVIS”: “soluble”; “MSLDKAPERVVSVGYTDDQTVLAFGIKPVGMVDQYPNPAGQSPDINTQWPWVKDKWGDTKPEVVMKNGDTGPNFEKIAALRPDLIVAVYSEIDQAAYDKLSKIAPTVGRTKGEKEPFSAPWQDNALHIAKALGKAEEGEKMVADIQGKLDAAKQAHPEFADKTAVVLSWYKDSVAPFTSTDVRGRLVTGIGFKYETEIDKVAGGDFYTTLSPERVDLVDVDRVFVINDKADQDALKKFELFTNLDAVKNGKVSYLLDSEGPAVGAAISQGTLLSMPYAVDELVKSAGEGHHHHHH”: “soluble”; “MSLDLETDVVAGTAERKGSAEGKVEIEDRHVTKVSLPVQVVTGDENTLCYYTAIFDGHDGSSCAQYATVNLHKNLISLYRQIYSTVQRRKFLSVGLEALVKATAKSFFMTDHNFLDSARKSGVEQDAGSTACVVLLFGPDDDGQLKLLTAHAGDTRAVLCRDDRALRLTEDHRPNHKLEQRRVQQNGGEVMNIEGVWRVIFVDRKTNRLFGLATSRALGDRRMKVPKKLVTCQPTLHVYAINFETDLFLVLASDGIWDVLSDEEVVAIVSEHLDKPPQEAARFVIDEAVKRGSEDDKTCTVLFFKWRRDRFPSEGHHHHHH”: “soluble”. Regarding “MSLDLSLNNLYSISTVELIQAFANTPASVTSLNLSGNSLGFKNSDELVQILAAIPANVTSLNLSGNFLSYKSSDELVKTLAAIPFTITVLDLGWNDFSSKSSSEFKQAFSNLPASITSLNLRGNDLGIKSSDELIQILAAIPANVNSLNLRGNNLASKNCAELAKFLASIPASVTSLDLSANLLGLKLEHHHHHH”, the “soluble on expression in E. coli” value is recorded as “not soluble”. Next, “MSLDMNKPEGFDCPGCAWPDPKHSASFDICENGAKAIAWEVTDKQVNASFFAENTVQSLLTWGDHELEAAGRLTQPLKYDAVSDCYKPLSWQQAFDEIGARLQSYSDPNQVEFYTSGRTSNEAAFLYQLFAREYGSNNFPDCSNMCHEPTSVGLAASIGVGKGTVLLEDFEKCDLVICIGHNPGTNHPRMLTSLRALVKRGAKMIAINPLQERGLERFTAPQNPFEMLTNSETQLASAYYNVRIGGDMALLKGMMRLLIERDDAASAAGRPSLLDDEFIQTHTVGFDELRRDVLNSEWKDIERISGLSQTQIAELADAYAAAERTIICYGMGITQHEHGTQNVQQLVNLLLMKGNIGKPGAGICPLRGHSNVQGDRTVGITEKPSAEFLARLGERYGFTPPHAPGHAAIASMQAICTGQARALICMGGNFALAMPDREASAVPLTQLDLAVHVATKLNRSHLLTARHSYILPVLGRSEIDMQKNGAQAVTVEDSMSMIHASRGVLKPAGVMLKSECAVVAGIAQAALPQSVVAWEYLVEDYDRIRNDIEAVLPEFADYNQRIRHPGGFHLINAAAERRWMTPSGKANFITSKGLLEDPSSAFNSKLVMATVRSHDQYNTTIYGMDDRYRGVFGQRDVVFMSAKQAKICRVKNGERVNLIALTPDGKRSSRRMDRLKVVIYPMADRSLVTYFPESNHMLTLDNHDPLSGIPGYKSIPVELEPSNEGHHHHHH”: “soluble”.

For “MSLDNDTVKVGDLVQINLPGEASLNQGFQVDRRGRINLPEIGPVFVAGYNEQQLQDVIIETLKTVYRDVNNARVFIKQQQLLVSVQGYVVKPGEYTLPAGSNIQMFVYEAGGLRAGAQLDKMIVKRGDQNIEFDYKRFLDTGDNEGHHHHHH”, the “soluble on expression in E. coli” value was “soluble”. As to “MSLDNIERTLGQLFEGRDFEKEYQGLKQQVLHYQPIQDFFKEHKEEVTEQLVNQNLSNLYEFMTQHKKFTEQEETLMPGYAPKLVLNGEFITVTYYPTKEKIEEDKRRAVERRIRSLYMPKQVVDANLADFYTDEESRQLALVEAYQFLNNYPPKSGERVKGLFIHGSFGTGKSYLLGALAKELALKGISSTLVYLPEFMREVKQSISDNTVGEKIQFAKETEVLMLDDIGAESMTAWTRDEVLGAILQFRMQEELPTFFSSNYNMDQLENHLMFAQNGTEEKLKARRIMERVRYLSKEVNLEGEGHHHHHH”, the “soluble on expression in E. coli” value is listed as “soluble”. Under “MSLDQAAVCLTICRINQLLSPSLLLKWWKADPSMSLTSPVLQTVTRDQIKAAALKNEIEQFYPKLPRVLAAYREQGINTIPISSKQYPFWLKSIYDPPAVLFAKGDMTLLSKGRKIGIVGTRNPTAYGKQVVNHLTKEICRKGWVIVSGLASGIDGMSHAASIKAKGRTIGVIAGGFQHIYPRENLQLADHMAKHHILLSEHPPETKPQKWHFPMRNRIISGLSEGVIVVQGKEKSGSLITAYQALEQGREVFAVPGSLFDPYAGGPIKLIQQGAKAIWSAEDIFEELPERNVQYTEPFEGHHHHHH” stands “not soluble”; under “MSLDQIKIAYIGGGSQGWARSLMSDLSIDERMSGTVALYDLDFEAAQKNEVIGNHSGNGRWRYEAVSTLKKALSAADIVIISILPGSLDDMEVDVHLPERCGIYQSVGDTVGPGGIIRGLRAVPIFAEIARAIRDYAPESWVINYTNPMSVCTRVLYKVFPGIKAIGCCHEVFGTQKLLAEMVTERLGIEVPRREDIRVNVLGINHFTWITKASYRHIDLLPIFREFSAHYGESGYELEGECWRDSVFCSAHRVAFDLFETYGAIPAAGDRHLAEFLPGPYLKQPEVWKFHLTPISFRKQDRAEKRQETERLIVQQRGVAEKASGEEGVNIIAALLGLGELVTNVNMPNQGQVLNLPIQAIVETNAFITRNRVQPILSGALPKGVEMLAARHISNQEAVADAGLTKDTGLAFQAFLNDPLVQIDRSDAEQLFNDMLQCIMQSEGHHHHHH”, “soluble”.
